Laboratory results: IntAct's records for PubMed 16767699

B1: Septin-11 (Homo sapiens), Q9NVA2 (parent)
chain: MAVAVGRPSNEELRNLSLSGHVGFDSLPDQLVNKSTSQGFCFNILCVGETGIGKSTLMDTLFNTKFESDPATHNEPGVRLKARSYELQESNVRLKLTIVDTVGFGDQINKDDSYKPIVEYIDAQFEAYLQEELKIKRSLFNYHDTRIHACLYFIAPTGHSLKSLDLVTMKKLDSKVNIIPIIAKADTIAKNELHKFKSKIMSELVSNGVQIYQFPTDEETVAEINATMSVHLPFAVVGSTEEVKIGNKMAKARQYPWGVVQVENENHCDFVKLREMLIRVNMEDLREQTHTRHYELYRRCKLEEMGFKDTDPDSKPFSLQETYEAKRNEFLGELQKKEEEMRQMFVMRVKEKEAELKEAEKELHEKFDLLKRTHQEEKKKVEDKKKELEEEVNNFQKKKAAAQLLQSQAQQSGAQQTKKDKDKKNASFT
partner: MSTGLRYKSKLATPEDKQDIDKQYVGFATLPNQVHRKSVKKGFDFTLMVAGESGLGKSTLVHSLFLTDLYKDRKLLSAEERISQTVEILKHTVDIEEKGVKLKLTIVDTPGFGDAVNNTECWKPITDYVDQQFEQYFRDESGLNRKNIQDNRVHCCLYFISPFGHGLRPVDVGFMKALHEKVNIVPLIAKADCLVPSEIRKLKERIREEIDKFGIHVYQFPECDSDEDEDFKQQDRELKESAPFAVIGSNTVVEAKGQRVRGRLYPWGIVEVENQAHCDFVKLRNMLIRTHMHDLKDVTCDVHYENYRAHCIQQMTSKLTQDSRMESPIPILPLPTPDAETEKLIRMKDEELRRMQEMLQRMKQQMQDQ

Variants of: B1
Details: with sept5_human SEPTIN5, Q99719

| effect of a mutation on the interaction | Variant |
| --- | --- |
| disrupting interaction | MAVAVGRPSNEELRNLSLSGHVGFDSLPDQLVNKSTSQGFCFNILCVGETGIGKNTLMDTLFNTKFESDPATHNEPGVRLKARSYELQESNVRLKLTIVDTVGFGDQINKDDSYKPIVEYIDAQFEAYLQEELKIKRSLFNYHDTRIHACLYFIAPTGHSLKSLDLVTMKKLDSKVNIIPIIAKADTIAKNELHKFKSKIMSELVSNGVQIYQFPTDEETVAEINATMSVHLPFAVVGSTEEVKIGNKMAKARQYPWGVVQVENENHCDFVKLREMLIRVNMEDLREQTHTRHYELYRRCKLEEMGFKDTDPDSKPFSLQETYEAKRNEFLGELQKKEEEMRQMFVMRVKEKEAELKEAEKELHEKFDLLKRTHQEEKKKVEDKKKELEEEVNNFQKKKAAAQLLQSQAQQSGAQQTKKDKDKKNASFT [S55N] |
